# Experiment: soluble on expression in E. coli; label from the status in PepcDB or PDB records
row,Sequence,soluble on expression in E. coli
1,SLRAEKSDDPLYPLTIIHLNDFHARFEETNTVSTRCKPDEGERCIGGYGRVVSRVKSLQQEYADRNPIYLNAGDSFQGTIWYTLLRWNVTAYFLNLLPADAMTLGNHEFDHGVEGLVPFLGAIDSPMLVANIDDREEPTLQGKYQRNVVLERGGRKIGIIGVIHHATDTLSMTDRVRFLDEVQCINQEATALKQLGVDIIVVLSHCGFTIDQQIARECPDVDVVVGGHSHTLLHTGTVADWPDVPAGSFPFVVEQAAGRRVLIVQAGSFTKYLGHLVVYFDERGEAVRWEGNTEYLDESFPKDEQIERELVPWRTQVDALAVRPVGVSRVFLSKPACRTGECNFGSFVADAFVDYYVGRGEAEHEWTYAAIGITNDGGLRTSLAPGTLTYEDLVTAIPYENTVDTFELRGQYLLDALEYSASRYDTADVLQFAGLRVVFNLTRPALQRVQRVDVRCRVCRIPRYEPLDVNATYRIAIAAWIGSGGNGYTMFGQHRTNVRVGPLDIDVFERYVAKMSPIMQGTDGRMVFVR,not soluble
2,SLRASDDKALQYAIAEITEIATGFGLDFYPMRYEICPAEIIYTFGAYGMPTRFSHWSFGKQFFRMKLQYDLGLSKIYELVINSDPCYAFLLDTNSLIQNKLIVAHVLAHCDFFKNNIRFSNTKRDMVESMSATAERVKAYEHKYGKEEVETFLDAVLAIQEHIDPSLMRPKLAWSIDDLEEEEVEKKKVSQYDDLWNLDNRNKKRERSNVRKKKKIPPQPEKDLLLFIEEYSRELEDWQRDILTMMREEMLYFWPQLETKIMNEGWASYY,soluble
3,SLRKIANSITEPIEQLVTAMKSVQHSGIEAGVSLSLPEHTQDEAGMLNRHFTVMMKRINELMEENVEKQLIIKETELKALQAQINPHFLYNTLESINWLAKANQQKQISKMVESLGFLLRNSIHMKKDIVTIQEEADIVRHYMTIQRFRFEERLKFTLDIDDEVKHCLIPKLTLQPLAENAIQYALEPFTRPCAIRIQAKKAKGCVCITVEDNGPGMDGRILESTGGRGIGLWNIRERISLTFGEPYGLRIHSEHEKGTRIVITIPCRNEVV,soluble
4,SLRSIMTPRGEISWVDAEQSEDEIRRQLLSSPHSLFPVCRGELDEIIGIVRAKEMLVALESGENVAALASASPAIVVPETLDPINLLGVLRRARGSFVIVTNEFGVVQGLVTPLDVLEAIAGEFPDADETPEIVIDGDGWLIKGSTDLHALQQALGLDPLINDDEDIATVAGLVISANGHIPRIGDVVSLPPLHFTVVEANDYRVDLVRAVVTRPPSDEEE,not soluble
5,SLSPRRLRLLLVDENPTARAVIGRRLSHRHYDVTVVEDGFAAQKTLIIQPSDIILIDMDLQLLPAIGTMEKIRAAHPAGHACIVMIGGASDTPKMIAALDAGADDHIVKPFDFDMLDARLRRVHARAERVNLLSRQYAELDARIARRAMELGETRETLRQVELDRARLMASVDHLQAEVARLSAREG,soluble
6,SLTPLRVLIVEDDPRIAQLHQRFCEKVAGFEVSGLAATYEEADELATILEPDLLLLDLYLPDGNGMDLLRQLRSRGQEVDVVLITAAKDVAAVQQALRAGAFDYIVKPAVFARFEEALTKFAAYRQQLEQGDVLNQNDIDQLLHSHHQPKVMDRGAVPKGIDPLTLTKIRQVFADQEQQGLSAEEVGAQIGASRSTARRYLEYMVSISELTADVVYGTVGRPERRYFSFENEG,soluble
7,SLVNLKVNLLLVDYRGYGKSEGEASEEGLYLDSEAVLDYVMTRPDLDKTKIFLFGRSLGGAVAIHLASENSHRISAIMVENTFLSIPHMASTLFSFFPMRYLPLWCYKNKFLSYRKISQCRMPSLFISGLSDQLIPPVMMKQLYELSPSRTKRLAIFPDGTHNDTWQCQGYFTALEQFIKEVVKSHSPEEMAKTSSNVTII,soluble
8,SMKLKSNQTRTYDGDGYKKRAACLCFRNDTEQEVLLVSSSRHPDKWIVPGGGMEPEEEPNVAAAREVCEEAGVKGTLGRLVGIFENRDRKHRTYVYVLIVTEVLEDWEDSVNIGRKREWFKIDDAIQVLQCHKPVQASYFTALQEGCLNSNGTPLVATIGGGDLSPTYSINQSSVSDMR,soluble
9,SMSAPAGEPPAPVRLRKNVCYVVLAVFLSEQDEVLLIQEAKRECRGSWYLPAGRMEPGETIVEALQREVKEEAGLHCEPETLLSVEERGPSWVRFVFLARPTGGILKTSKEADAESLQAAWYPRTSLPTPLRAHDILHLVELAAQYRQQARHPLIL,soluble
10,SMSPEPDCQKQFQAAVSVIQNLPKNGSYRPSYEEMLRFYSYYKQATMGPCLVPRPGFWDPIGRYKWDAWNSLGKMSREEAMSAYITEMKLVAQKVIDTVPLGEVAE,soluble
11,SMVLLTMIARVADGLPLAASMQEDEQSGRDLQQYQSQAKQLFRKLNEQSPTRCTLEAGAMTFHYIIEQGVCYLVLCEAAFPKKLAFAYLEDLHSEFDEQHGKKVPTVSRPYSFIEFDTFIQKTKKLYIDSRARRNLGSINTELQDVQRIMVANIEEVLQRGEALSALDSKANNLSSLSKKYRQDAKYLNMRSTYAK,soluble
12,SNAGMTGFVINTRRAPFDDWRLREALLLAFNFEFINDTVTGGVMPRITSYFSGTDLAYRPGTASGREAELLAPFAADLPPGTLEGYALPQGDGTARNRTNLRRAAQFLEQAGFRIEQGQLLGPDGAPLALRFLLRQGDSDMQTVLEIYTRALERLGIAAQIEKVDNAQYTARVAELDFDLTPFRRDLSLSPGNEQRLYWGSHSAGQPGTRNLMGAASPAIDAMIDRMLAATTEDELTAATRALDRVLTAGRYVIPIWR,soluble
13,SNALFSSRDILEVLQDIHMETGETVAIATKNDIYLQYIQIIESVHALRFHVDENAIRPLTMSSNGWMLMSTMNDKAIDNTVRRANTITQKDGIRFEVDDMMARIRQVREQGYASAEHIPFVGGGTICVLLPMTIQGQPVTMGLGGALDRIKQNYDRYLELLLNGVQQLKKSDSFHQPI,soluble
14,SNAMAHEAQKAIARNSLLIRSLPEQHVDALLSQAVWRSYDRGETLFLQEEKAQAIHVVIDGWVKLFRMTPTGSEAVVSVFTRGESFGEAVALRNTPYPVSAEAVTPCEVMHIPSPVFVSLMRRDPEICISILATTFGHLHSLVAQLEQLKAQTGAQRVAEFLLELCDCDTGACEVTLPYDKMLIAGRLGMKPESLSRAFSRLKAAGVTVKRNHAEIEDIALLRDYAESDPADSWSES,soluble
15,SNAMDIVSVALQRYSTKAFDPSKKLTAEEADKIKTLLQYSPSSTNSQPWHFIVASTEEGKARVAKSAAGNYTFNERKMLDASHVVVFCAKTAMDDAWLERVVDQEDADGRFATPEAKAANDKGRRFFADMHRVSLKDDHQWMAKQVYLNVGNFLLGVAAMGLDAVPIEGFDAEVLDAEFGLKEKGYTSLVVVPVGHHSVEDFNAGLPKSRLPLETTLTEV,soluble
16,SNAMFKEAINNYLHTHGYESIDLKAVLFDMDGVLFDSMPNHAESWHKIMKRFGFGLSREEAYMHEGRTGASTINIVSRRERGHDATEEEIKAIYQAKTEEFNKCPKAERMPGALEVLTKIKSEGLTPMVVTGSGQTSLLDRLNHNFPGIFQANLMVTAFDVKYGKPNPEPYLMALKKGGFKPNEALVIENAPLGVQAGVAAGIFTIAVNTGPLHDNVLLNEGANLLFHSMPDFNKNWETLQSALKQD,soluble
17,SNAMKQLTILGSTGSIGNSTLSVVRANPELFKVTALVAGRNVREMAQQCLEFSPRYAAMSDEHSAKSLRLLLAEQGSDTEVYSGETAACELAALDDVDQVMAAIVGIAGLPSTLAAIRAGKQVLLANKESLITCGKLFMDEVKRSRAQLLPIDSEHNAIFQSLPERIQRQLGYSSLNENGVSRIILTGSGGPFRETPLSQFSDVTPDQACAHPNWSMGRKISVDSATMMNKGLEYIEARWLFNASAEQIEVVLHPQSVIHSMVRYHDGSILAQMGTPDMRTPIAHAMAYPMRVSSGVAPLDFCKVGALTFTTPDYQRYPCLKLAIDACNAGQAATTALNAANEISVMAFLDSKIRFTDIEVINRTVVEGLLLSEPTSVEEVLVIDRKARDVAAQVIAKLNN,soluble
18,SNAMVQAQTRDQIVAAADELFYRQGFAQTSFVDISAAVGISRGNFYYHFKTKDEILAEVIRLRLARTAQMLADWQGTGDSPRARIASFIDLMIMNRAKITRYGCPVGSLCTELSKLDHAAQGQANGLFTLFRDWLQRQFAEAGCTTEAPALAMHLLARSQGAATLAQSFHDEGFLRSEVADMHRWLDNTLPMTT,soluble
19,SNASVFDLFSIGIGPSSSHTVGPMLAANAFLQLLEQKNLFDKTQRVKVELYGSLALTGKGHGTDKAILNGLENKAPETVDPASMIPRMHEILDSNLLNLAGKKEIPFHEATDFLFLQKELLPKHSNGMRFSAFDGNANLLIEQVYYSIGGGFITTEEDFDK,soluble
20,SNATGLGELKISDTICAQNAVEALPALSVDEPTVTMTFQVNTSPFAGKEGKFVTSRNILERLEKELVHNVALRVEQTDDPDKFRVSGRGELHLSILIENMRREGFELAVSRPEVIIKEEDGQLMEPFETVTIDVMEEHQGGIMENIGLRKGELKDMAPDGKGRVRMDFIMPSRGLIGFQTEFMTLTSGSGLLYHTFDHYGPHKGGNIGQRVNGVLIANAAGKALTNALFNLQERGRLFIGHGVEVYEGMVIGIHSRDNDLTVNALKGKQLTNVRASGTDDAQVLTPPIVMTLEQALEFIDDDELVEVTPESIRIRKKFLTESDRKRASRSAK,soluble
21,SNAVRQVEEYIEANWMRPITIEKLTALTGISSRGIFKAFQRSRGYSPMAFAKRVRLQHAHNLLSDGATPTTVTAAALSCGFSNLGHFARDYRDMFGEKPSETLQRARP,soluble
22,SNKGGGSGGGSGGGSGPTAAAAAAALQKQKALLQRVETDITSVVDNFTQIVNVSRVSDPPVKNSQETYMMEMRASRMATQVLLKDFLMSLWSVVNLLPHQWWQVQAADSLLKLVSELKQTAIFSGFASLNDHVEQRIEEFDQEAEKTNRLLARIADDASANLKELESHYYSSAQRLTLDI,soluble
23,SNLLYKRWVERCRNIVDKLSEDRIGYVHVKGMDSQSFREVYSEVLGRCRNKEAIIVDTRHNGGGWLHDDLATLLSGKEYQRFVPRGQYIGSDPFNKWLKPSCVLVCEDNYSNAHGFPWVYKELKIGKLIGAPVPGTMTAVWWENQIDPSIVFGIPQVGCMDMRGQYAENHQLSPDIEVYNTPEKALAGEDQQLEAAVQEMLKTIGEKK,not soluble
24,SPDEQLLKQVSELLQQGEHAQALNVIQTLSDELQSRGDVKLAKADCLLETKQFELAQELLATIPLEYQDNSYKSLIAKLELHQQAAESPELKRLEQELAANPDNFELACELAVQYNQVGRDEEALELLWNILKVNLGAQDGEVKKTFMDILSALGQGNAIASKYRRQLYSILY,soluble
25,SPEAQTEIEESILEEYAIWRKNTPFLYDLVVTKPLEWPSLTCQWLPEKREFPNSDYYLEKIILGTQTDGNAQNYLMLAQVRLPNEKAEVDGSAYNNKENGSYGGFGMGQQGKIDIVQRIKHDGDVNRARYMPQNPQIIATKTVSGEVHIFDISKHPLKPPANNVASPQLRLRSPQKEGFGLCWNPNQEGRIISAGEDRRIFLWDILGGGDKEEYVNPLNVYGGHTDVVGDVSFHAHSQYLFGSVGDDRKIMLWDTRSSDVEHPSQEVEAHKDVINCLAFNPFSEHVLITGSADTTLCLWDLRSLNQPLHVFESHPGEILQALWSPFHETLFASCGKDRQVRIWDLSRIGEEQEPEDAEDGPPELLFVHGGHTSTVQELSWNPNEPFVIASVADDNILQLWSMAQHIYEDTDDESMTTELKEEDLE,soluble

# From the DeepSol protein solubility set
